Data on 27 substances can be found in EP1947117A2.

The target in test [1] is porcine TSH receptor (solubilized porcine thyroid membranes) (porcine) (UniProt Q8SPP9). The experiment in a line: competitive displacement of 125I-bTSH from solubilized porcine thyroid membranes. A general note: In a radioligand displacement assay an active substance lowers the binding of a labelled ligand.
The target of test [2] is hCG receptor on MA-10 cells (transformed murine Leydig cells) (murine) (UniProt P30730). The experiment in a line: cell-based or functional assay.
The target is the same in test [3]. Kind of test: 125I-hCG receptor binding assay on MA-10 cells (Fig. 3b).
Test [4] addresses human TSH receptor on CHO cells (CHO-hTSHR clone JP09) (human) (UniProt P16473). Kind of test: cell-based or functional assay.
The target in test [5] is rat TSH receptor on FRTL-5 cells (rat) (UniProt P21463). Kind of test: cell-based or functional assay.
In test [6] the target is porcine TSH receptor (solubilized porcine thyroid membranes) (porcine) (UniProt Q8SPP9). Kind of test: competitive binding assay to porcine thyroid membranes.

Chain of hCG receptor on MA-10 cells (transformed murine Leydig cells) (murine) (P30730 27-700): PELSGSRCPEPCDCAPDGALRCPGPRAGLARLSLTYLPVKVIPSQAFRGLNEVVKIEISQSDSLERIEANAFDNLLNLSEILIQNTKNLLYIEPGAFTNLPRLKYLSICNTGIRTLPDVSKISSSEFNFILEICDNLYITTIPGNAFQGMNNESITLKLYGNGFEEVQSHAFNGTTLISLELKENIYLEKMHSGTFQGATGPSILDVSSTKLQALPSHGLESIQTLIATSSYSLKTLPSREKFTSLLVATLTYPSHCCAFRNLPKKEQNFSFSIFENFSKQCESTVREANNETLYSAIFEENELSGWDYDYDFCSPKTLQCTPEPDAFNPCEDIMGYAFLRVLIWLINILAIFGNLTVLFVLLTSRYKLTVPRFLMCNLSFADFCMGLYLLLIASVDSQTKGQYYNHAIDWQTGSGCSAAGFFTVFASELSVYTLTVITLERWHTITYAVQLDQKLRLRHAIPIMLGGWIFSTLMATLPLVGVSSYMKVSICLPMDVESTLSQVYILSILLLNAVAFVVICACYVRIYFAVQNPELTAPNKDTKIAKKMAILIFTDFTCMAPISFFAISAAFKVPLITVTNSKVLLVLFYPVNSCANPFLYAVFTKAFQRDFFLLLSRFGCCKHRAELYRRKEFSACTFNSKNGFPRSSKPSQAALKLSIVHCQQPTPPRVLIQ
Chain of porcine TSH receptor (solubilized porcine thyroid membranes) (porcine) (Q8SPP9 22-764): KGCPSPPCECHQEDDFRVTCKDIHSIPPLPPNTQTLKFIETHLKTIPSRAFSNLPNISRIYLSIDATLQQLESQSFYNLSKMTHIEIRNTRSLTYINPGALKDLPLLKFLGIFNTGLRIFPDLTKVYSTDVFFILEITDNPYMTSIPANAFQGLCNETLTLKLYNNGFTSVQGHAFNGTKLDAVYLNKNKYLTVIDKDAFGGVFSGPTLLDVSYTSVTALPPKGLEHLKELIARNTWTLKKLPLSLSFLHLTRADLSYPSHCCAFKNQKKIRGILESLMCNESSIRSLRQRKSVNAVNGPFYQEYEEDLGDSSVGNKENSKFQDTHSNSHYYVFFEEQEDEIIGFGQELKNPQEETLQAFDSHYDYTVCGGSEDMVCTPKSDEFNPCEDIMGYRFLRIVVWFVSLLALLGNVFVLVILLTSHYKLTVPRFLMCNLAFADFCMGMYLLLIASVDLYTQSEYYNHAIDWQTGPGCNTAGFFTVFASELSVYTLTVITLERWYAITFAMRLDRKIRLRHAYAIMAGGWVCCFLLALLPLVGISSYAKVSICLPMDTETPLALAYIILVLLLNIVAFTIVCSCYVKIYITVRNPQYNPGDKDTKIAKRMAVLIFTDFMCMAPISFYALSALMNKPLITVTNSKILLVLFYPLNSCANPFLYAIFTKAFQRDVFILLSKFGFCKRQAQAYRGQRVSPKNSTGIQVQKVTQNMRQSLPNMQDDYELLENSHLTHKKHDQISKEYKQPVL
Chain of rat TSH receptor on FRTL-5 cells (rat) (P21463 22-764): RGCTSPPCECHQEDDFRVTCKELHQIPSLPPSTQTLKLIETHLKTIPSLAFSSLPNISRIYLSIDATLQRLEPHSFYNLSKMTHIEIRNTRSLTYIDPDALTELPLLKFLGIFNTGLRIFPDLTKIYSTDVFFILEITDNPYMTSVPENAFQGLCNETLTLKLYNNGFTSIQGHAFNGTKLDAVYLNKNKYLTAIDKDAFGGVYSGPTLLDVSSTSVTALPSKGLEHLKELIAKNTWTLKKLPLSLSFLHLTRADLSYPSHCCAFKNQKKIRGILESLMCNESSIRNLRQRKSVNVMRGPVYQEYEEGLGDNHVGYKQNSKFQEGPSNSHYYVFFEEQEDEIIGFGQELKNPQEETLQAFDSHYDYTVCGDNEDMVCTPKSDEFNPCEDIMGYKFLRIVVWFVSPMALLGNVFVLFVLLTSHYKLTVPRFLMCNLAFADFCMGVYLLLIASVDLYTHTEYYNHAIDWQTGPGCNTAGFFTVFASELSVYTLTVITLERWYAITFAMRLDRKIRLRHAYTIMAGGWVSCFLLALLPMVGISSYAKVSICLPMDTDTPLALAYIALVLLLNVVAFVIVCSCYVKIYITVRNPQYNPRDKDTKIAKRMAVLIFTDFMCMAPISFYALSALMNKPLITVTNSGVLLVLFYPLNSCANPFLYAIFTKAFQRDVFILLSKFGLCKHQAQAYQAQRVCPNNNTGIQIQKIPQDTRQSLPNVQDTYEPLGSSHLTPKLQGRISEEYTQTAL

Consider “WT-hTSH (wild-type recombinant human thyroid stimulating hormone) (from UniProt P01215 25-116; P01222 21-132) (ligand)”, for which the EC25 of inhibition of 125I-bTSH binding in test [1] came out at 81.3 ng/mL.

In test [2], “hCG mutant α-P16K / WT-hCGβ (from UniProt P01215 25-116; P0DN86 21-165) (ligand)” had a Progesterone synthesis in MA 10 cells, EC50 of 2.05 ng/mL; a Progesterone synthesis in MA 10 cells, Max of 161%; a stimulation of progesterone production in MA-10 cells, fold more active than WT-hCG of 4 fold. In addition, the fold more active than WT-hCG in receptor binding activity in test [3] amounted to 4 fold.

“hCG mutant α-P16K+Q20K / WT-hCGβ (from UniProt P01215 25-116; P0DN86 21-165) (ligand)”: in test [2], the Progesterone synthesis in MA 10 cells, EC50 was found to be 1.7 ng/mL and the Progesterone synthesis in MA 10 cells, Max came to 212%.

In test [2], “hCG mutant α-Q13K / WT-hCGβ (from UniProt P01215 25-116; P0DN86 21-165) (ligand)” displayed a Progesterone synthesis in MA 10 cells, EC50 of 2.46 ng/mL and a Progesterone synthesis in MA 10 cells, Max of 115%.

With “hCG mutant α-Q13K+P16K+Q20K / WT-hCGβ (from UniProt P01215 25-116; P0DN86 21-165) (ligand)”, in test [2], the Progesterone synthesis in MA 10 cells, EC50 is 1.58 ng/mL and the Progesterone synthesis in MA 10 cells, Max amounted to 216%.

In test [2], “hCG mutant α-Q13K+P16K+Q20K+E14K / WT-hCGβ (from UniProt P01215 25-116; P0DN86 21-165) (ligand)” gave a Progesterone synthesis in MA 10 cells, EC50 of 1.65 ng/mL and a Progesterone synthesis in MA 10 cells, Max of 205%.

In test [2], “hCG mutant α-Q20K / WT-hCGβ (from UniProt P01215 25-116; P0DN86 21-165) (ligand)” showed a Progesterone synthesis in MA 10 cells, EC50 of 2.96 ng/mL and a Progesterone synthesis in MA 10 cells, Max of 134%.

Regarding “hCG mutant α-Q50P / WT-hCGβ (from UniProt P01215 25-116; P0DN86 21-165) (ligand)”, in test [2], the Progesterone synthesis in MA 10 cells, EC50 worked out at 3.9 ng/mL and the Progesterone synthesis in MA 10 cells, Max was found to be 137%.

In test [2], “hCG mutant α-R67K / WT-hCGβ (from UniProt P01215 25-116; P0DN86 21-165) (ligand)” yielded a Progesterone synthesis in MA 10 cells, EC50 of 4.6 ng/mL and a Progesterone synthesis in MA 10 cells, Max of 145%.

In test [2], “hCG mutant α-T11K / WT-hCGβ (from UniProt P01215 25-116; P0DN86 21-165) (ligand)” showed a Progesterone synthesis in MA 10 cells, EC50 of 2.79 ng/mL and a Progesterone synthesis in MA 10 cells, Max of 156%.

Take “hTSH mutant WT α / TSHβ-L69R (from UniProt P01215 25-116; P01222 21-132) (ligand)”: in test [4], the cAMP stimulation in JP09 cells, EC50 stood at 2.75 ng/mL and the cAMP stimulation in JP09 cells, relative potency (WT=1) was 2.4 fold (WT=1).

Consider “hTSH mutant WT α / hTSHβ-E63R (from UniProt P01215 25-116; P01222 21-132) (ligand)”, for which the potency, fold increase over hTSH in test [5] and in test [4] was 2 to 4 fold throughout.

“hTSH mutant WT α / hTSHβ-I58R (from UniProt P01215 25-116; P01222 21-132) (ligand)”: the potency, fold increase over hTSH in test [5] and in test [4] was 2 to 4 fold throughout.

In test [4], “hTSH mutant WT α / hTSHβ-I58R+E63R (from UniProt P01215 25-116; P01222 21-132) (ligand)” came in with an efficacy of cAMP stimulation in CHO-hTSH cells (Fig. 2g), fold increase of 1.5 fold and a potency of cAMP stimulation in CHO-hTSH cells (Fig. 2g), fold over wild type hTSH of 15 fold.

As to “hTSH mutant WT α / hTSHβ-I58R+E63R+L69R (from UniProt P01215 25-116; P01222 21-132) (ligand)”, in test [4], the efficacy of cAMP stimulation in CHO-hTSH cells (Fig. 2g), fold increase turned out to be 1.7 fold and the potency of cAMP stimulation in CHO-hTSH cells (Fig. 2g), fold increase came out at 50 fold.

Regarding “hTSH mutant α-P16K / WT-hTSHβ (from UniProt P01215 25-116; P01222 21-132) (ligand)”, in test [4], the cAMP stimulation in JP09 cells, EC50 is 1.05 ng/mL and the cAMP stimulation in JP09 cells, relative potency (WT=1) was 6.4 fold (WT=1). Besides, the fold greater affinity than WT in test [6] turned out to be 5 fold. Besides, the EC25 of inhibition of 125I-bTSH binding in test [1] came out at 189 ng/mL.

Take “hTSH mutant α-P16K+F17T / WT-hTSHβ (from UniProt P01215 25-116; P01222 21-132) (ligand)”: in test [4], the cAMP stimulation in JP09 cells, EC50 was determined as 3.52 ng/mL and the cAMP stimulation in JP09 cells, relative potency (WT=1) was 1.9 fold (WT=1).

Consider “hTSH mutant α-P16K+Q20K / WT-hTSHβ (from UniProt P01215 25-116; P01222 21-132) (ligand)”, for which, in test [4], the cAMP stimulation in JP09 cells, EC50 is 0.37 ng/mL and the cAMP stimulation in JP09 cells, relative potency (WT=1) is 11.8 fold (WT=1). In addition, the EC25 of inhibition of 125I-bTSH binding in test [1] stood at 6.4 ng/mL.

As for “hTSH mutant α-Q13K / WT-hTSHβ (from UniProt P01215 25-116; P01222 21-132) (ligand)”, in test [4], the cAMP stimulation in JP09 cells, EC50 is 1.89 ng/mL and the cAMP stimulation in JP09 cells, relative potency (WT=1) was 3.5 fold (WT=1). The substance further yielded an EC25 of inhibition of 125I-bTSH binding in test [1] of 22.5 ng/mL.

For the substance “hTSH mutant α-Q13K+P16K+Q20K / TSHβ-L69R (from UniProt P01215 25-116; P01222 21-132) (ligand)”, the half-maximal stimulation of 3H-thymidine incorporation in FRTL-5 cells, fold lower concentration than WT-hTSH in test [5] came out at 27 fold. Moreover, in test [4], the cAMP stimulation in JP09 cells, EC50 was 0.19 ng/mL and the cAMP stimulation in JP09 cells, relative potency (WT=1) is 35.3 fold (WT=1). In test [1], this substance showed an EC25 of inhibition of 125I-bTSH binding of 1.8 ng/mL.

As for “hTSH mutant α-Q13K+P16K+Q20K / WT-hTSHβ (from UniProt P01215 25-116; P01222 21-132) (ligand)”, in test [5], the half-maximal stimulation of 3H-thymidine incorporation in FRTL-5 cells, fold lower concentration than WT-hTSH worked out at 18 fold. In test [4], the cAMP stimulation in JP09 cells, EC50 was 0.28 ng/mL and the cAMP stimulation in JP09 cells, relative potency (WT=1) was 23.9 fold (WT=1). The substance further displayed an EC25 of inhibition of 125I-bTSH binding in test [1] of 2.3 ng/mL.

Turning to “hTSH mutant α-Q13K+P16K+Q20K+E14K / TSHβ-L69R (from UniProt P01215 25-116; P01222 21-132) (ligand)”, in test [4], the cAMP stimulation in JP09 cells, EC50 stood at 0.07 ng/mL; the cAMP stimulation in JP09 cells, relative potency (WT=1) was 95.7 fold (WT=1); the efficacy (maximal response) of cAMP stimulation, fold over WT-hTSH is > 1.5 fold. In addition, the EC25 of inhibition of 125I-bTSH binding in test [1] stood at 1.3 ng/mL.

As to “hTSH mutant α-Q13K+P16K+Q20K+E14K / WT-hTSHβ (from UniProt P01215 25-116; P01222 21-132) (ligand)”, in test [4], the cAMP stimulation in JP09 cells, EC50 was determined as 0.17 ng/mL; the cAMP stimulation in JP09 cells, relative potency (WT=1) was 39.4 fold (WT=1); the efficacy (maximal response) of cAMP stimulation, fold over WT-hTSH is > 1.5 fold. The EC25 of inhibition of 125I-bTSH binding in test [1] came out at 2.1 ng/mL.

For “hTSH mutant α-Q20K / WT-hTSHβ (from UniProt P01215 25-116; P01222 21-132) (ligand)”, in test [4], the cAMP stimulation in JP09 cells, EC50 stood at 1.16 ng/mL and the cAMP stimulation in JP09 cells, relative potency (WT=1) is 5.8 fold (WT=1). Moreover, the EC25 of inhibition of 125I-bTSH binding in test [1] was 21.3 ng/mL.

“hTSH mutant α-Q50P / WT-hTSHβ (from UniProt P01215 25-116; P01222 21-132) (ligand)”: in test [4], the cAMP stimulation in JP09 cells, EC50 is 5.54 ng/mL and the cAMP stimulation in JP09 cells, relative potency (WT=1) was 1.2 fold (WT=1). Besides, in test [1], the EC25 of inhibition of 125I-bTSH binding was found to be 77.5 ng/mL.

Regarding “hTSH mutant α-R67K / WT-hTSHβ (from UniProt P01215 25-116; P01222 21-132) (ligand)”, in test [4], the cAMP stimulation in JP09 cells, EC50 is 7.36 ng/mL and the cAMP stimulation in JP09 cells, relative potency (WT=1) was 0.9 fold (WT=1). Further, the EC25 of inhibition of 125I-bTSH binding in test [1] is 62.5 ng/mL.

“hTSH mutant α-T11K / WT-hTSHβ (from UniProt P01215 25-116; P01222 21-132) (ligand)”: in test [4], the cAMP stimulation in JP09 cells, EC50 was 4.47 ng/mL and the cAMP stimulation in JP09 cells, relative potency (WT=1) is 1.5 fold (WT=1). Moreover, the EC25 of inhibition of 125I-bTSH binding in test [1] was determined as 68.3 ng/mL.
